Data set [1] concerns the molecule itself. As to the kind of experiment: SEC-MALS; 1 mg/mL protein injected on Superdex 200 Increase 10/300 GL at 10 °C; 20 mM TRIS, 300 mM NaCl, 1 mM DTT, pH 8.0; without CaCl2; stoichiometric ratio = MALS molecular weight / theoretical monomer mass.
Data set [2] concerns the molecule itself. As to the kind of experiment: SEC-MALS; 1 mg/mL protein injected on Superdex 200 Increase 10/300 GL at 10 °C; 20 mM TRIS, 300 mM NaCl, 1 mM DTT, pH 8.0; with 25 mM CaCl2; stoichiometric ratio = MALS molecular weight / theoretical monomer mass. For orientation: In gel filtration, larger molecules generally elute earlier.

B1: STIM1-2β-OASF (STIM1-OASF mutated to contain the VAASYLIQ (2β) insertion after G379) (domain or fragment, human, UniProt Q13586-1 234-491, looked up)
chain: NRYSKEHMKKMMKDLEGLHRAEQSLHDLQERLHKAQEEHRTVEVEKVHLEKKLRDEINLAKQEAQRLKELREGTENERSRQKYAEEELEQVREALRKAEKELESHSSWYAPEALQKWLQLTHEVEVQYYNIKKQNAEKQLLVAKEGVAASYLIQAEKIKKKRNTLFGTFHVAHSSSLDDVDHKILTAKQALSEVTAALRERLHRWQQIEILCGFQIVNNPGIHSLVAALNIDPSWMGSTRPNPAHFIMTDDVDDMDEEIVSPLSMQ
notes: Made by PCR-mediated site-directed mutagenesis of pET-28a-STIM1-OASF; A few vector residues probably remain after thrombin cleavage (surmise); source: E. coli BL21 (DE3), purified under denaturing conditions (guanidine-HCl, nickel-NTA), renatured, thrombin-cleaved, SEC
Regarding B1, the stoichiometry N (commonly the number of molecules, sites or subunits per partner or assembly) is 2.02 in data set [1] and 1.96 in data set [2].

(Values after paper PMC6274866, “The 2β Splice Variation Alters the Structure and Function of the Stromal Interaction Molecule Coiled-Coil Domains” (International Journal of Molecular Sciences, 2018).)
